Results from patent US20150344570A1 (published 2015).

B1: GpH7-A5/GpH7-B3 variant L235_01G/GpL16-k0 (He Ab) (antibody, human IgG1, kappa)
heavy 1: not shown
heavy 2: not shown
light: DIVMTQSPLSLPVTPGEPASISCQASESLVHSNRNTYLHWYLQKPGQSPQLLIYKVSNRFSGVPDRFSGSGSGTDFTLKISRVEAEDVGVYYCSQNTHVPPTFGQGTKVEIERTVAAPSVFIFPPSDEQLKSGTASVVCLLNNFYPREAKVQWKVDNALQSGNSQESVTEQDSKDSTYSLSSTLTLSKADYEKHKVYACEVTHQGLSSPVTKSFNRGEC
notes: He Ab: mutation in one H chain only
B2: GpH7-A5/GpH7-B3 variant G236_04F/GpL16-k0 (antibody, human IgG1, kappa)
heavy 1: not shown
heavy 2: not shown
light: B1 light
notes: heterodimerized IgG1, mutation in one H chain only; also called He Ab
B3: GpH7-A5/GpH7-B3 variant L234_19Q/GpL16-k0 (antibody, human IgG1, kappa)
heavy 1: not shown
heavy 2: not shown
light: B1 light
notes: as for B2
B4: GpH7-A5/GpH7-B3 variant L235_13S/GpL16-k0 (He Ab) (antibody, human IgG1, kappa)
heavy 1: not shown
heavy 2: not shown
light: B1 light
notes: as for B1
B5: GpH7-A5/GpH7-B3 variant L234_19Q/GpL16-k0 (He Ab) (antibody, human IgG1, kappa)
heavy 1: not shown
heavy 2: not shown
light: B1 light
notes: as for B1
B6: GpH7-A5/GpH7-B3 variant L235_05P/GpL16-k0 (He Ab) (antibody, human IgG1, kappa)
heavy 1: not shown
heavy 2: not shown
light: B1 light
notes: as for B1
B7: GpH7-A5/GpH7-B3 variant L235_18N/GpL16-k0 (He Ab) (antibody, human IgG1, kappa)
heavy 1: not shown
heavy 2: not shown
light: B1 light
notes: as for B1
B8: GpH7-A5/GpH7-B3 variant L235_06M/GpL16-k0 (He Ab) (antibody, human IgG1, kappa)
heavy 1: not shown
heavy 2: not shown
light: B1 light
notes: as for B1
B9: GpH7-A5/GpH7-B3 variant L234_16H/GpL16-k0 (He Ab) (antibody, human IgG1, kappa)
heavy 1: not shown
heavy 2: not shown
light: B1 light
notes: as for B1
B10: GpH7-A5/GpH7-B3 variant L235_14T/GpL16-k0 (He Ab) (antibody, human IgG1, kappa)
heavy 1: not shown
heavy 2: not shown
light: B1 light
notes: as for B1
B11: GpH7-A5/GpH7-B3 variant L234_05P/GpL16-k0 (antibody, human IgG1, kappa)
heavy 1: not shown
heavy 2: not shown
light: B1 light
notes: as for B2
B12: GpH7-A5/GpH7-B3 variant G236_14T/GpL16-k0 (antibody, human IgG1, kappa)
heavy 1: not shown
heavy 2: not shown
light: B1 light
notes: as for B2
B13: GpH7-A5/GpH7-B3 variant G236_12R/GpL16-k0 (antibody, human IgG1, kappa)
heavy 1: not shown
heavy 2: not shown
light: B1 light
notes: as for B2
B14: GpH7-A5/GpH7-B3 variant L234_16H/GpL16-k0 (antibody, human IgG1, kappa)
heavy 1: not shown
heavy 2: not shown
light: B1 light
notes: as for B2
B15: GpH7-A5/GpH7-B3 variant L234_14T/GpL16-k0 (He Ab) (antibody, human IgG1, kappa)
heavy 1: not shown
heavy 2: not shown
light: B1 light
notes: as for B1
B16: GpH7-A5/GpH7-B3 variant G236_03V/GpL16-k0 (antibody, human IgG1, kappa)
heavy 1: not shown
heavy 2: not shown
light: B1 light
notes: as for B2
B17: GpH7-A5/GpH7-B3 variant L235_12R/GpL16-k0 (antibody, human IgG1, kappa)
heavy 1: not shown
heavy 2: not shown
light: B1 light
notes: as for B2

Columns and labels:
[1] = biological target: T1, FcγRIa extracellular domain with C-terminal His tag (human, UniProt P12314 16-292); experiment: SPR (Biacore), relative binding, HeCon Ab = 100
T1 construct: extracellular domain; Expressed in FreeStyle293 cells; analyte in the SPR assay; also called FcgRI; 1a

[2] = biological target: T2, FcγRIIb extracellular domain with C-terminal His tag (human, UniProt P31994 43-217); experiment: SPR (Biacore), relative binding, HeCon Ab = 100
T2 construct: extracellular domain; Expressed in FreeStyle293 cells; analyte in the SPR assay; also called FcgRIIb; 2b
T2 sequence (looked up): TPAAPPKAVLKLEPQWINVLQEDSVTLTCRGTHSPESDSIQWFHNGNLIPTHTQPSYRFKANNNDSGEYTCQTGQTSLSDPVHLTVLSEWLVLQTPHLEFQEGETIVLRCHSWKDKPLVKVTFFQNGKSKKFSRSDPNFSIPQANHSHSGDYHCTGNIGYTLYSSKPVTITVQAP

[3] = biological target: T1, FcγRIa extracellular domain with …; experiment: SPR (Biacore); He/Con_1a divided by He/Con_2b (FcγRIa against FcγRIIb)
[4] = biological target: T3, FcγRIIa R (FcγRIIa allotype with Arg at position 131), extracellular domain with C-terminal His tag (human, UniProt P12318 34-217); experiment: SPR (Biacore), antibody captured, FcγR analyte; vs GpH7-A5/GpH7-B3/GpL16-k0 = 100
T3 construct: extracellular domain; made in FreeStyle293 cells; analyte in the Biacore assay; also called FcγRIIa type R; 2aR
T3 sequence (looked up): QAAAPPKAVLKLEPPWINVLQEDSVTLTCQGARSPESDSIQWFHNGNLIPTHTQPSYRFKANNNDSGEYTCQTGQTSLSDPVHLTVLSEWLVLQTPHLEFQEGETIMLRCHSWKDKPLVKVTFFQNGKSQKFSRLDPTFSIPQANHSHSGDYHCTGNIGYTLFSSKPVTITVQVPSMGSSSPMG
Description: (§1) The heterodimerized antibodies He Abs in which one of the H chains was introduced with an alteration were assayed for their binding activities to each activating FcγR and inhibitory FcγR according to the method described in Example 4. […] The activating FcγRs in FIGS. 26, 27, 28, and 29 are FcγRIa, FcγRIIa (R), FcγRIIa (H), and FcγRIIIa, respectively.
(§2) Analysis of interaction between objective antibody and the FcγR was carried out using Biacore T100 (GE Healthcare). HBS-EP+ (GE Healthcare) was used as the running buffer, and the measurement temperature was set to 25° C. Chips produced by immobilizing the antigen peptide by the amine coupling method to a Series S Sencor Chip CM5 (GE Healthcare), or alternatively, chips produced by allowing preliminarily biotinylated antigen peptides to interact with and immobilize onto a Series S Sensor Chip SA (certified) (GE Healthcare) were used. Antibodies of interest were captured onto an antigen peptide-immobilized chip, and allowed to interact to each FcγR diluted with running buffer. To regenerate and repeatedly use the chip, the antibodies captured on the chip were washed off by reacting 10 mM glycine-HCl, pH 1.5.

[5] = biological target: T4, FcγRIIb, extracellular domain with C-terminal His tag (human, UniProt P31994 43-217); experiment: as above
T4 construct: extracellular domain; made in FreeStyle293 cells; analyte in the Biacore assay; also called 2b; FcgRIIb
T4 sequence (looked up): T2 sequence (looked up)
Description: as §1, §2

[6] = biological target: T3, FcγRIIa R (FcγRIIa allotype with Arg at …); experiment: SPR (Biacore); He/Con_2aR divided by He/Con_2b, binding to FcγRIIa R against binding to FcγRIIb
Description: as §1, §2

T1 sequence (P12314 16-292): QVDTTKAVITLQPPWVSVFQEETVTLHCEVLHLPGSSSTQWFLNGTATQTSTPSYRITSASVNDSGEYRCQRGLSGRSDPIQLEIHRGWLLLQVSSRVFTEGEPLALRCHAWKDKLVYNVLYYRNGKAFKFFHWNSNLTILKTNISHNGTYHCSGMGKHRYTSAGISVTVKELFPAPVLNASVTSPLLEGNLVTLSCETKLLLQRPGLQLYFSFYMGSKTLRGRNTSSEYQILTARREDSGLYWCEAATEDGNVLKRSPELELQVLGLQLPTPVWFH

He/Con_1a [1]	He/Con_2b [2]	He_1a/2b (Ia/IIb) [3]	He/Con_2aR [4]	He/Con_2b [5]	He_2aR/2b (IIaR/IIb) [6]	Binder
87.2 % of HeCon Ab (=100)	35.4 % of HeCon Ab (=100)	2.46 ratio	–	–	–	B1
–	–	–	53.1 relative (HeCon Ab = 100)	39.3 relative (HeCon Ab = 100)	1.35 ratio	B2
–	–	–	75.1 relative (HeCon Ab = 100)	60.3 relative (HeCon Ab = 100)	1.24 ratio	B3
90.5 % of HeCon Ab (=100)	48.2 % of HeCon Ab (=100)	1.88 ratio	–	–	–	B4
95.7 % of HeCon Ab (=100)	60.3 % of HeCon Ab (=100)	1.59 ratio	–	–	–	B5
94.7 % of HeCon Ab (=100)	54.7 % of HeCon Ab (=100)	1.73 ratio	–	–	–	B6
92.2 % of HeCon Ab (=100)	54.9 % of HeCon Ab (=100)	1.68 ratio	–	–	–	B7
98 % of HeCon Ab (=100)	81 % of HeCon Ab (=100)	1.21 ratio	–	–	–	B8
94 % of HeCon Ab (=100)	59.4 % of HeCon Ab (=100)	1.58 ratio	–	–	–	B9
88.7 % of HeCon Ab (=100)	46.8 % of HeCon Ab (=100)	1.9 ratio	–	–	–	B10
–	–	–	89.6 relative (HeCon Ab = 100)	72.9 relative (HeCon Ab = 100)	1.23 ratio	B11
–	–	–	103 relative (HeCon Ab = 100)	57.8 relative (HeCon Ab = 100)	1.78 ratio	B12
–	–	–	24.1 relative (HeCon Ab = 100)	6.8 relative (HeCon Ab = 100)	3.55 ratio	B13
–	–	–	71.8 relative (HeCon Ab = 100)	59.4 relative (HeCon Ab = 100)	1.21 ratio	B14
98.6 % of HeCon Ab (=100)	62.5 % of HeCon Ab (=100)	1.58 ratio	–	–	–	B15
–	–	–	91.6 relative (HeCon Ab = 100)	35.3 relative (HeCon Ab = 100)	2.6 ratio	B16
–	–	–	16.2 relative (HeCon Ab = 100)	–	1.69 ratio	B17
